Results taken from patent publication US10428140B2, “Anti-EphA4 antibody” (EISAI R&D MANAGEMENT CO., LTD., priority 2015, dated 2019).
Substitutions are numbered along the chain they refer to. One block for each molecule: values may come before it.

How the values were obtained:
Assay in all cases: Selectivity ELISA of humanized antibodies for human Eph receptor
Assay type in all cases: binding
Details in all cases: coated protein 1 nM
human EphA2 = biological target: T1, human EphA2 (Homo sapiens, UniProt P29317)
T1 construct: a protein of the extracellular region of each human Eph receptor fused with the SEAP protein and the His tag; made in house; host or cells: Expi293F cells (culture supernatant)
Outline: (§1)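 Extracellular domains of human Eph receptors fused to SEAP-His were expressed in Expi293F cells for 5 days and captured from supernatant (1 nM final) on anti-His-coated plates. Humanized anti-EphA4 antibodies were incubated 1 h at room temperature, then HRP anti-IgG secondary, TMB substrate, and absorbance at 450 nm.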

SEAP-His = SEAP-His (Homo sapiens, UniProt P05187)
Outline: as §1

human EphA6 = biological target: T2, human EphA6 (Homo sapiens, UniProt Q9UF33)
T2 construct: a protein of the extracellular region of each human Eph receptor fused with the SEAP protein and the His tag; made in house; host or cells: Expi293F cells (culture supernatant)
T2 sequence (Q9UF33 23-550 limits assumed): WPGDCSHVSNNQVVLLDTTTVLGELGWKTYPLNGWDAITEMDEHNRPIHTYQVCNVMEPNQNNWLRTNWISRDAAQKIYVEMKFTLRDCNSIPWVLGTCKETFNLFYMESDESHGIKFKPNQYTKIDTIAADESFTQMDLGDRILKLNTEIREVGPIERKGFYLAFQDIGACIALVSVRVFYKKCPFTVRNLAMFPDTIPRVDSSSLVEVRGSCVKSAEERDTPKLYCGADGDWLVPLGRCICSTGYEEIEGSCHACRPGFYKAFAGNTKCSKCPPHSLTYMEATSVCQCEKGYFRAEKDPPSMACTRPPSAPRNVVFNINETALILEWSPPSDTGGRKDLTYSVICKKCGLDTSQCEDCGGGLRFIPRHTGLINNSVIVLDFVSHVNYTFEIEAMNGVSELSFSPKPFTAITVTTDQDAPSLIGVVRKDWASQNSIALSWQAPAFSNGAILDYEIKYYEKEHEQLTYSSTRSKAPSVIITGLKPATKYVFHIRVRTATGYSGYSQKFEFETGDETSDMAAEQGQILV
Outline: as §1

human EphB6 = biological target: T3, human EphB6 (Homo sapiens, UniProt O15197)
T3 construct: a protein of the extracellular region of each human Eph receptor fused with the SEAP protein and the His tag; made in house; host or cells: Expi293F cells
T3 sequence (O15197 32-594 limits assumed): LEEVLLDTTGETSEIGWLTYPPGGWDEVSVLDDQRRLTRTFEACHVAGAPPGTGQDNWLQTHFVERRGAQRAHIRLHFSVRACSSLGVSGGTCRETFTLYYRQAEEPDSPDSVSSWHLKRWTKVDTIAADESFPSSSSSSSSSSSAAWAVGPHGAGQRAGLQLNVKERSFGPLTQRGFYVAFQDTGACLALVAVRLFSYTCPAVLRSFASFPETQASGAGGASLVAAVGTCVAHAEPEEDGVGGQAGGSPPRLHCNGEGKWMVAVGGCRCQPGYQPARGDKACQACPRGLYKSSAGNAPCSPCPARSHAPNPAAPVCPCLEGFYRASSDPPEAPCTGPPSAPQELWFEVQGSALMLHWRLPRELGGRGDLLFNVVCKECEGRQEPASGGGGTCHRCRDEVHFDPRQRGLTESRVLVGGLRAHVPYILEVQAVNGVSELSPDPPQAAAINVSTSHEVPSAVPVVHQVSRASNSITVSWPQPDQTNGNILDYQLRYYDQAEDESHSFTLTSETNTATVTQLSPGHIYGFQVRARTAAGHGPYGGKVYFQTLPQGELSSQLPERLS
Outline: as §1

Sequence of SEAP-His (P05187 23-511 limits assumed): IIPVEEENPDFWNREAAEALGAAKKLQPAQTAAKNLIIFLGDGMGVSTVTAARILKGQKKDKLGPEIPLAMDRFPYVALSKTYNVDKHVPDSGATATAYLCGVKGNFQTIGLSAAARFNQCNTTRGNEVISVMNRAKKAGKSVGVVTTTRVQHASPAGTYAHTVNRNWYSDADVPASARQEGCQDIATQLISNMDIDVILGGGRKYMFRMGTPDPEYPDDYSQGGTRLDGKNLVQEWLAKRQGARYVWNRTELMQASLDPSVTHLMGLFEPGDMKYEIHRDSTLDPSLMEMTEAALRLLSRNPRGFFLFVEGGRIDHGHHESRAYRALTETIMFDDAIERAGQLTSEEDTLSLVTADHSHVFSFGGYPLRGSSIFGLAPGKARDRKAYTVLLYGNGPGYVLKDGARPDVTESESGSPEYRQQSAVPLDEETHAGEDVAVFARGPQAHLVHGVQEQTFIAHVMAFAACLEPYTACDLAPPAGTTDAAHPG
T1 sequence (P29317 24-537 limits assumed): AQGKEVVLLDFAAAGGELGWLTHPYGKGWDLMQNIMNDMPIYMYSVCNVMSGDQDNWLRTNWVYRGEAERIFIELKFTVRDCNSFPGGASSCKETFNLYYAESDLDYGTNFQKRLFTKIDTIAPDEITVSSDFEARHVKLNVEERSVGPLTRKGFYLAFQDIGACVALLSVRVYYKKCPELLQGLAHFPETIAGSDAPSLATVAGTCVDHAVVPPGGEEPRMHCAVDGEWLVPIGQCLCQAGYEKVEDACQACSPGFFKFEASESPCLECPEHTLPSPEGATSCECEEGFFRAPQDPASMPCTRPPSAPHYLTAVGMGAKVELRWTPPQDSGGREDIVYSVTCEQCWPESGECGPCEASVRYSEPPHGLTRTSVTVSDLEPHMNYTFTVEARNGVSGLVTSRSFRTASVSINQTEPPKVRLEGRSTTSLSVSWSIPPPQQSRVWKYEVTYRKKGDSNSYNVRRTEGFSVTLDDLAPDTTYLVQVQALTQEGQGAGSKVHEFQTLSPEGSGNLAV

B2: 67 (antibody, V domains shown)
VH: QIQLVQSGSELKKPGASVKVSCKASGYTFTDYSMHWVRQAPGQGLKWMGWINTETGEPTYAQGFTGRFVFSLDTSVSTAYLQISSLKAEDTAVYYCARIPLYYYGSRYWYFDVWGQGTTVTVSS
VL: DIQMTQSPSSLSASVGDRVTITCRASENIYRNLAWYQQKPGKAPKLLVYAATNLADGVPSRFSGSGSGTDYTLTISSLQPEDFATYYCQHFWGTPWTFGQGTKVEIK
modifications: synthetic humanized antibody heavy chain variable region sequence; synthetic humanized antibody light chain variable region sequence
- hEphA2-SEAP-: absorbance at 450 nm, percentage with respect to hEphA4-SEAP-His as 100% (human EphA2): 4.6%
- SEAP-His: absorbance at 450 nm, percentage with respect to hEphA4-SEAP-His as 100% (SEAP-His): 5.0%
- hEphA6-SEAP-: absorbance at 450 nm, percentage with respect to hEphA4-SEAP-His as 100% (human EphA6): 7.3%
- hEphB6-SEAP-: absorbance at 450 nm, percentage with respect to hEphA4-SEAP-His as 100% (human EphB6): 4.7%

B3: 156 (antibody, V domains shown)
VH: B2 VH
VL: B2 VL with K45Q, V48L
modifications: synthetic humanized antibody heavy chain variable region sequence; synthetic humanized antibody light chain variable region sequence
- hEphA2-SEAP-: absorbance at 450 nm, percentage with respect to hEphA4-SEAP-His as 100% (human EphA2): 5.5%
- SEAP-His: absorbance at 450 nm, percentage with respect to hEphA4-SEAP-His as 100% (SEAP-His): 5.4%
- hEphA6-SEAP-: absorbance at 450 nm, percentage with respect to hEphA4-SEAP-His as 100% (human EphA6): 8.9%
- hEphB6-SEAP-: absorbance at 450 nm, percentage with respect to hEphA4-SEAP-His as 100% (human EphB6): 5.7%

B6: 136 (antibody, V domains shown)
VH: B2 VH with I2V, Q62D, G63D, T65K
VL: EIVMTQSPATLSVSPGERATLSCRASENIYRNLAWYQQKPGQSPRLLIYAATNLADGIPARFSGSGSGTEYTLTISSLQSEDFAVYYCQHFWGTPWTFGQGTKVEIK
modifications: synthetic humanized antibody heavy chain variable region sequence; synthetic humanized antibody light chain variable region sequence
- hEphA2-SEAP-: absorbance at 450 nm, percentage with respect to hEphA4-SEAP-His as 100% (human EphA2): 5.1%
- SEAP-His: absorbance at 450 nm, percentage with respect to hEphA4-SEAP-His as 100% (SEAP-His): 5.2%
- hEphA6-SEAP-: absorbance at 450 nm, percentage with respect to hEphA4-SEAP-His as 100% (human EphA6): 7.2%
- hEphB6-SEAP-: absorbance at 450 nm, percentage with respect to hEphA4-SEAP-His as 100% (human EphB6): 5.5%

The remaining lines, values ahead:

- hEphA2-SEAP-: absorbance at 450 nm, percentage with respect to hEphA4-SEAP-His as 100% (human EphA2): 4.8%
- SEAP-His: absorbance at 450 nm, percentage with respect to hEphA4-SEAP-His as 100% (SEAP-His): 5.5%
- hEphA6-SEAP-: absorbance at 450 nm, percentage with respect to hEphA4-SEAP-His as 100% (human EphA6): 7.9%
- hEphB6-SEAP-: absorbance at 450 nm, percentage with respect to hEphA4-SEAP-His as 100% (human EphB6): 5.2%
B1: 76 (antibody, V domains shown)
VH: B2 VH with I2V
VL: B2 VL
modifications: synthetic humanized antibody heavy chain variable region sequence; synthetic humanized antibody light chain variable region sequence

- hEphA2-SEAP-: absorbance at 450 nm, percentage with respect to hEphA4-SEAP-His as 100% (human EphA2): 4.5%
- SEAP-His: absorbance at 450 nm, percentage with respect to hEphA4-SEAP-His as 100% (SEAP-His): 4.7%
- hEphA6-SEAP-: absorbance at 450 nm, percentage with respect to hEphA4-SEAP-His as 100% (human EphA6): 6.0%
- hEphB6-SEAP-: absorbance at 450 nm, percentage with respect to hEphA4-SEAP-His as 100% (human EphB6): 4.5%
B4: 77 (antibody, V domains shown)
VH: B2 VH with I2V, K46E, Q62D, G63D, T65K
VL: B2 VL
modifications: synthetic humanized antibody heavy chain variable region sequence; synthetic humanized antibody light chain variable region sequence

- hEphA2-SEAP-: absorbance at 450 nm, percentage with respect to hEphA4-SEAP-His as 100% (human EphA2): 4.9%
- SEAP-His: absorbance at 450 nm, percentage with respect to hEphA4-SEAP-His as 100% (SEAP-His): 5.3%
- hEphA6-SEAP-: absorbance at 450 nm, percentage with respect to hEphA4-SEAP-His as 100% (human EphA6): 10.0%
- hEphB6-SEAP-: absorbance at 450 nm, percentage with respect to hEphA4-SEAP-His as 100% (human EphB6): 5.2%
B5: 78 (antibody, V domains shown)
VH: B2 VH with I2V, Q62D, G63D, T65K
VL: B2 VL
modifications: synthetic humanized antibody heavy chain variable region sequence; synthetic humanized antibody light chain variable region sequence
